Biological target: β1AR-84 (minimally thermostabilised turkey β1 adrenergic receptor construct) (turkey), P07700
Assay: cell-based or functional assay

Sequence of β1AR-84 (minimally thermostabilised turkey β1 adrenergic receptor construct) (turkey), P07700 (P07700 other isoform, or with tags, fused parts or gaps): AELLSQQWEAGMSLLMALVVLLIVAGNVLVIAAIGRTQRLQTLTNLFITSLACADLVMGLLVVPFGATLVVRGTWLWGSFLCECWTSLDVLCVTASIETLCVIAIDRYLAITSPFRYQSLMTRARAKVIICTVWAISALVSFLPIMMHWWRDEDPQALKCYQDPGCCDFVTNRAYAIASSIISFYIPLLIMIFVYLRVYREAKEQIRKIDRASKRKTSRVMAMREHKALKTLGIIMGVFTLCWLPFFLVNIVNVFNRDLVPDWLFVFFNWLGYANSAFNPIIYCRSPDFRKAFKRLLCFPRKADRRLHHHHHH

isoprenaline Ki of DDM-solubilised β1AR-84 (alone […] µM): 0.0047 µM
isoprenaline Ki of membrane-embedded β1AR-84 (alone […] µM): 0.0036 µM
isoprenaline Ki of β1AR-84 with 0.25 mM GTPγS (alone 3.0 µM): 5.2 nM
B1: Mini Gs393, P04896 26-394 (protein)
chain: GIEKQLQKDKQVYRATHRLLLLGADNSGKSTIVKQMRILHGGSGGSGGTSGIFETKFQVDKVNFHMFDVGGQRDERRKWIQCFNDVTAIIFVVDSSDYNRLQEALNDFKSIWNNRWLRTISVILFLNKQDLLAEKVLAGKSKIEDYFPEFARYTTPEDATPEPGEDPRVTRAKYFIRDEFLRISTASGDGRHYCYPHFTCAVDTENARRIFNDCRDIIQRMHLRQYELL

From patent US20190032033A1
